Data from US20250282890A1.

Experiments:
[1] = target: human PSMA displayed on the surface of LNCaP cells (human) (UniProt Q04609); test: flow cytometry on LNCaP cells, IgG1 titrated
[2] = target: recombinant human PSMA (prostate-specific membrane antigen), biotin-tagged (human) (UniProt Q04609); test: ELISA on plates coated with recombinant PSMA, two-fold dilution series, goat anti-human-HRP and TMB
[3] = target: recombinant human PSMA (prostate-specific membrane antigen), biotin-tagged (human) (UniProt Q04609); test: native ELISA, streptavidin-captured biotin-tagged PSMA, IgG1 titrated
[4] = target: recombinant human PSMA (prostate-specific membrane antigen), biotin-tagged (human) (UniProt Q04609); test: native ELISA, streptavidin-captured biotin-tagged PSMA, Fab titrated
[5] = target: recombinant human PSMA (prostate-specific membrane antigen), biotin-tagged (human) (UniProt Q04609); test: ELISA on plates coated with recombinant PSMA (biotin-tagged, captured on streptavidin), two-fold dilution series, goat anti-human-HRP and TMB
[6] = target: human PSMA displayed on the surface of LNCaP cells (human) (UniProt Q04609); test: flow cytometry titration on cells (three-fold dilution series, anti-Strep antibody and goat anti-mouse Alexa Fluor 647); the sheet does not name the cell line, the text gives the curves as binding to cell-surface PSMA (LNCaP)
[7] = target: human PSMA displayed on the surface of LNCaP cells (human) (UniProt Q04609); test: flow cytometry on LNCaP cells, Fab titrated

human PSMA displayed on the surface of LNCaP cells (human), sequence (Q04609 whole entry): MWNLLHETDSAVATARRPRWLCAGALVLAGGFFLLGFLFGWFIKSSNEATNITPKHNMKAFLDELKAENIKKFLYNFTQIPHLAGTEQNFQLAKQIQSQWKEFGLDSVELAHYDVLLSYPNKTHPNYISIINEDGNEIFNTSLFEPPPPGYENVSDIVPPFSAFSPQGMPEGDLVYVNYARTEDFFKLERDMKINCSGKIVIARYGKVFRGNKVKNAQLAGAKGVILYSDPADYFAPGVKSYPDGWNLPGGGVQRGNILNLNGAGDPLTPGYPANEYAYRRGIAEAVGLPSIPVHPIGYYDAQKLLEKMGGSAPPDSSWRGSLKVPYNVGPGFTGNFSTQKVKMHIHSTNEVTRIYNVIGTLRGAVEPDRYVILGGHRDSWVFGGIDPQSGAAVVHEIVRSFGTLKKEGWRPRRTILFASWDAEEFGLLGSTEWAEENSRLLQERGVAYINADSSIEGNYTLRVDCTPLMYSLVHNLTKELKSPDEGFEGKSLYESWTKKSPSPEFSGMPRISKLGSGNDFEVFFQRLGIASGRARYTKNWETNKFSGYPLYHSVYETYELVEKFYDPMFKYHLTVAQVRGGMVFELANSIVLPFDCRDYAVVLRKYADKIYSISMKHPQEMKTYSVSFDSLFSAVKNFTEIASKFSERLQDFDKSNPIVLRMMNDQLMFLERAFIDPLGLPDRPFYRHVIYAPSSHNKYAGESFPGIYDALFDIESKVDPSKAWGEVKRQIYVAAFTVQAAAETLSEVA
recombinant human PSMA (prostate-specific membrane antigen), biotin-tagged (human), sequence (Q04609 44-750 limits assumed): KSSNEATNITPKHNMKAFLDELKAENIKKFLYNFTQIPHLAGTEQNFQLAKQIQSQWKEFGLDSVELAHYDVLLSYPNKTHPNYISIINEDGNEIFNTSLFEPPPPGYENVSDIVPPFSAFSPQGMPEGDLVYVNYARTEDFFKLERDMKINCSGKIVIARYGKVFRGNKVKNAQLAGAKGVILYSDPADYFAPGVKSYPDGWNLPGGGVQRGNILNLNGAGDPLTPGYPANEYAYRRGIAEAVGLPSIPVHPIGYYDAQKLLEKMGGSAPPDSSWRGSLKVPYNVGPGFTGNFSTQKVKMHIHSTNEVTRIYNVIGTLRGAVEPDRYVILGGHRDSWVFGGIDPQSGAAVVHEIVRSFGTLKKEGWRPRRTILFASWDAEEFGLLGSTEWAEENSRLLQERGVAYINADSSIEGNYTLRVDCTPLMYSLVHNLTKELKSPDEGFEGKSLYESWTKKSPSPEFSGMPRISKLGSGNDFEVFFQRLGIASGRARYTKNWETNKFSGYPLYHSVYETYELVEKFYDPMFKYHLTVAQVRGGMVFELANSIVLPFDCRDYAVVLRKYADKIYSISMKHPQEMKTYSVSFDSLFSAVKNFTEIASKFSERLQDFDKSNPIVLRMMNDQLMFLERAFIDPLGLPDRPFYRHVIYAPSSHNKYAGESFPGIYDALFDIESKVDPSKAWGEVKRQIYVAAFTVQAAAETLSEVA

Substance | Kd [1] [nM] | EC50 (read off the curve) [2] [nM] | Kd [3] [nM] | Kd [4] [nM] | EC50 (read off the curve) [5] [nM] | EC50 (read off the curve) [6] [nM] | Kd [7] [nM]
Chimeric 5D3 IgG1 (antibody) | 0.35 | 0.3 | 0.28 |  |  |  | 
Chimeric Fab |  |  |  | 1.8 | 1 | 3 | 2.8
